Experimental data from the supplement of paper PMC10065799, “High-throughput profiling of sequence recognition by tyrosine kinases and SH2 domains using bacterial peptide display” (eLife, 2023).

How the values were obtained:
FGFR3 = FGFR3 (UniProt P22607); experiment: phosphorylation enrichment, bacterial display (enrichment ratio); higher = better substrate or ligand; peptides without Tyr show the background
FGFR1 = FGFR1 (UniProt P11362); experiment: as above
c-Src = experiment: as above
Fer (mouse) = experiment: as above
AncSZ = experiment: as above
Fyn = Fyn (UniProt P06241); experiment: as above
Fyn, sequence (P06241 whole entry, looked up): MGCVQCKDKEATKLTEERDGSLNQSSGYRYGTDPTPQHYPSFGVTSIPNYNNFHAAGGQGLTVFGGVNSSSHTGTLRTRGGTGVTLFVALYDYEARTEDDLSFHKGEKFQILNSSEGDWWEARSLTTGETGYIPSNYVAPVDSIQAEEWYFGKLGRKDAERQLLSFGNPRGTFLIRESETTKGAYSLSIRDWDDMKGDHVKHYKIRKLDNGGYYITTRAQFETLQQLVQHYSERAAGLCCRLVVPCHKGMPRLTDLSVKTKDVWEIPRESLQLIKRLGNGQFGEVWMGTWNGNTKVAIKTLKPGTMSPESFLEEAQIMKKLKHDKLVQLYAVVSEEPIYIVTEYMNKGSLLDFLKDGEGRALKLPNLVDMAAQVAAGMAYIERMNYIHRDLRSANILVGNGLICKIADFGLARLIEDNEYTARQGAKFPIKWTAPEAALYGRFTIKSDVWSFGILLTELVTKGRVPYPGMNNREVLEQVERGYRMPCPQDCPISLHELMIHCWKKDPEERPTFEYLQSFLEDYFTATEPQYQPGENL

Jak2 = Jak2 (UniProt O60674); experiment: as above
Hck = Hck (UniProt P08631); experiment: as above
Hck, sequence (P08631 whole entry, looked up): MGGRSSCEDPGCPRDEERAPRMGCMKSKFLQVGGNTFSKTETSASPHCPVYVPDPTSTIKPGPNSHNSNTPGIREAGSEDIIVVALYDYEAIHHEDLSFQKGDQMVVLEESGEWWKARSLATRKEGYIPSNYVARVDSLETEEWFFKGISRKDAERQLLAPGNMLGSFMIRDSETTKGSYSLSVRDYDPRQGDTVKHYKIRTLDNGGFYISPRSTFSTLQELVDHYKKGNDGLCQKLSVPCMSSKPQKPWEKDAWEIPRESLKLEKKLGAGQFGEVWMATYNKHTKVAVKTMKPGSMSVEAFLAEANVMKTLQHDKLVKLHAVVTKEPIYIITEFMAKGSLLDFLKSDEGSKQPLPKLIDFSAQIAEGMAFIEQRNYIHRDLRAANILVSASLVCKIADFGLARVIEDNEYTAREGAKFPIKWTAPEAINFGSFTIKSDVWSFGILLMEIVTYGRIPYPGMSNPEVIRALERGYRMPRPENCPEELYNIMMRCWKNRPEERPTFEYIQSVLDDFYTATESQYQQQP

EPHB2 = EPHB2 (UniProt P29323); experiment: as above
MERTK = MERTK (UniProt Q12866); experiment: as above
MERTK, sequence (Q12866 whole entry, looked up): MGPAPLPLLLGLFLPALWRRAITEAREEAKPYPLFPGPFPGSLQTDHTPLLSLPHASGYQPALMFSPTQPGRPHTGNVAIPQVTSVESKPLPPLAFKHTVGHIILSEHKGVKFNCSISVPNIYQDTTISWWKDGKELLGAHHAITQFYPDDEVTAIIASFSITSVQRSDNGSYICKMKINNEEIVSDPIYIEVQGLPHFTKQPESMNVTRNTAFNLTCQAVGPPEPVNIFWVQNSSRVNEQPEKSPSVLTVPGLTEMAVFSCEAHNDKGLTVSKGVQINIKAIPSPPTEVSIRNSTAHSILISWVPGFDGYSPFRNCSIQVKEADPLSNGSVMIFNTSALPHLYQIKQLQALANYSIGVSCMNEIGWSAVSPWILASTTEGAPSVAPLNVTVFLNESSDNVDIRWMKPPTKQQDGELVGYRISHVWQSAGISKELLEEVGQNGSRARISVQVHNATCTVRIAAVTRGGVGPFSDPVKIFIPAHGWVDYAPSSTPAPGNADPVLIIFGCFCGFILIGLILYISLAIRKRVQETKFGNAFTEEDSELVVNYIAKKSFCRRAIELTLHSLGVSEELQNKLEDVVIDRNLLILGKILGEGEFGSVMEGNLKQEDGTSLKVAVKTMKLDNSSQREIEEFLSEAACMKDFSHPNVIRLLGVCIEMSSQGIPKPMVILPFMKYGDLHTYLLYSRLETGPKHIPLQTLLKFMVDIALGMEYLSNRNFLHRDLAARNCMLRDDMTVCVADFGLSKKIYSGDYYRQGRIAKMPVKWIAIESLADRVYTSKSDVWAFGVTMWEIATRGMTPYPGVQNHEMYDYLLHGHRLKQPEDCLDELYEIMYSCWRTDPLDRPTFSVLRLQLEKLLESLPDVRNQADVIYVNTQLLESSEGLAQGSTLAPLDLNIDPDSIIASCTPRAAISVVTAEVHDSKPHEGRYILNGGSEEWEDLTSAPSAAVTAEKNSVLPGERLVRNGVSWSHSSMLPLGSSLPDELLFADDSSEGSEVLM

Fes = Fes (UniProt P07332); experiment: as above
Fes, sequence (P07332 whole entry, looked up): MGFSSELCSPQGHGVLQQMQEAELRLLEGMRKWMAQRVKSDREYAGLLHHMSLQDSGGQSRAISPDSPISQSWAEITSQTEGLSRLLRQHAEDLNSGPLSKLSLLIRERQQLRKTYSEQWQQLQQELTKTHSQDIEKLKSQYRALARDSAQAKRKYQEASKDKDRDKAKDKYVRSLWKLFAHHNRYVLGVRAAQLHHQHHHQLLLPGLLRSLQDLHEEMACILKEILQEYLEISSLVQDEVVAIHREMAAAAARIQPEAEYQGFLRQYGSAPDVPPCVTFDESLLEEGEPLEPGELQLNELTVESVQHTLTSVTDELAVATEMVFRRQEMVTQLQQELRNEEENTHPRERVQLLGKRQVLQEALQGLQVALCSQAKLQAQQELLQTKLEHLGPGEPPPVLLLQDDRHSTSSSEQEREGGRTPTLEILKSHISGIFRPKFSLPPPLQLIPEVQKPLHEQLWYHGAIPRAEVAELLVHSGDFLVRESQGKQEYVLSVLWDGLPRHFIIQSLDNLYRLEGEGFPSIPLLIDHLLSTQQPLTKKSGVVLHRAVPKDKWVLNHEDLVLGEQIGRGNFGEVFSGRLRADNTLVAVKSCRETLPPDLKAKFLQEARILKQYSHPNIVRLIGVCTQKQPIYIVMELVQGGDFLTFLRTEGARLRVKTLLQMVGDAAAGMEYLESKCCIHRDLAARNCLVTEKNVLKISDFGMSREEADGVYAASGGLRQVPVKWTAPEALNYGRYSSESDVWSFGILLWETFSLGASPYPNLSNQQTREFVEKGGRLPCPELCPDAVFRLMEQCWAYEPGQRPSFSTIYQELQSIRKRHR

EPHB1 = EPHB1 (UniProt P54762); experiment: as above
c-Abl (mouse) = experiment: as above
Grb2 SH2 = Grb2 SH2 (UniProt P62993); experiment: SH2 binding enrichment of the phosphorylated peptide, bacterial display (enrichment ratio); higher = better substrate or ligand; peptides without Tyr show the background
SHP2-C SH2 = experiment: as above
c-Src SH2 = experiment: as above
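Wherever SH2 binding enrichment of the phosphorylated peptide, bacterial display is given: peptide library displayed on the E. coli surface as eCPX fusions, selected cells deep-sequenced, score is each peptide's frequency after selection divided by its frequency in the input.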
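Wherever phosphorylation enrichment, bacterial display is given: 11-residue human phosphosite peptides and single-mutation variants displayed on the E. coli surface, counted by deep sequencing, each peptide's frequency after selection divided by its frequency in the unselected input library; frequency after pTyr selection over input frequency; kinase dosed for 20-30% of maximal phosphorylation in three min.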

FGFR3, sequence (P22607 whole entry, looked up): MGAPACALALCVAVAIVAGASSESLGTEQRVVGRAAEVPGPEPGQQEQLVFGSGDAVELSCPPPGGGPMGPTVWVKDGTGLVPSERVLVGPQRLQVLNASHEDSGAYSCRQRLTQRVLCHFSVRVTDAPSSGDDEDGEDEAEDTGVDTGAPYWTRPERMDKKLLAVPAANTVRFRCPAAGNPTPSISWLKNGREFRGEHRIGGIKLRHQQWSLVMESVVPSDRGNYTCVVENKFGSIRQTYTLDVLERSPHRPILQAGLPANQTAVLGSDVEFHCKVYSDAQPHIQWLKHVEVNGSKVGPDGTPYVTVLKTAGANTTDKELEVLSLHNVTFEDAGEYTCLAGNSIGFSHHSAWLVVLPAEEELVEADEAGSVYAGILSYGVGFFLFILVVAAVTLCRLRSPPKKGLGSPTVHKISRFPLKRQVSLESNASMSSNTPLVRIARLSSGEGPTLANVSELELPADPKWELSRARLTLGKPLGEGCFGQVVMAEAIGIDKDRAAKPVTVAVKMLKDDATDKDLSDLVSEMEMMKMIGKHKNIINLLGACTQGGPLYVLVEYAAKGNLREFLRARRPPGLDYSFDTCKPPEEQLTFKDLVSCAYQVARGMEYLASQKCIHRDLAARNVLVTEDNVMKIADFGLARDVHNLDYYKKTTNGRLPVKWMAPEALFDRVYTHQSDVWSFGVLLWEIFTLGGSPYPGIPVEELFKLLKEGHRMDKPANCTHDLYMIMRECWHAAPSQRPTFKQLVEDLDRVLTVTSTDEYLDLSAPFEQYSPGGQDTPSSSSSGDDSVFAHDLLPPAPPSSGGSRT
FGFR1, sequence (P11362 whole entry, looked up): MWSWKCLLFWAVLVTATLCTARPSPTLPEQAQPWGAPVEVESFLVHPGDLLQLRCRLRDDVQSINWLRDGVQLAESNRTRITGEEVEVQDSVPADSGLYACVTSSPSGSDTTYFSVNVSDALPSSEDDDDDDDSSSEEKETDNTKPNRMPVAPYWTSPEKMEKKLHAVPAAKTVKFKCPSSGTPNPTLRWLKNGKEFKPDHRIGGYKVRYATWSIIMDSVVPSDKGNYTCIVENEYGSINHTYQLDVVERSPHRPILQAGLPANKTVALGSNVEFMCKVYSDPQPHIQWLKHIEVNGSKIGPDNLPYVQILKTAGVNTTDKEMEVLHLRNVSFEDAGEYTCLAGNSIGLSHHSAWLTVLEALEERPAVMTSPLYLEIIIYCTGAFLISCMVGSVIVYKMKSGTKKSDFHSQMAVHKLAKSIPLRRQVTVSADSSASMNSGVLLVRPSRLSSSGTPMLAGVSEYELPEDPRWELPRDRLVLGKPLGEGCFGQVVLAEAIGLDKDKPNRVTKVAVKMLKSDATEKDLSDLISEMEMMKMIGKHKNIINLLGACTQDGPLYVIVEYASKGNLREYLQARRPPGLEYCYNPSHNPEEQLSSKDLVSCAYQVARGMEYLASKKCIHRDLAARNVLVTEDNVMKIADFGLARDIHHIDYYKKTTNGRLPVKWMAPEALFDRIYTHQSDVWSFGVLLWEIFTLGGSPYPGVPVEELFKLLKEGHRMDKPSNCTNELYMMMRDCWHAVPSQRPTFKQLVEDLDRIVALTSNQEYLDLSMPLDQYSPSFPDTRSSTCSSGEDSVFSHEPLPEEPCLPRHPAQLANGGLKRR

| Sequence | SH2 binding enrichment (Grb2 SH2) | SH2 binding enrichment (SHP2-C SH2) | SH2 binding enrichment (c-Src SH2) | phosphorylation enrichment (FGFR3) | phosphorylation enrichment (FGFR1) | phosphorylation enrichment (c-Src) | phosphorylation enrichment (Fer (mouse)) | phosphorylation enrichment (AncSZ) | phosphorylation enrichment (Fyn) | phosphorylation enrichment (Jak2) | phosphorylation enrichment (Hck) | phosphorylation enrichment (EPHB2) | phosphorylation enrichment (MERTK) | phosphorylation enrichment (Fes) | phosphorylation enrichment (EPHB1) | phosphorylation enrichment (c-Abl (mouse)) |
| --- | --- | --- | --- | --- | --- | --- | --- | --- | --- | --- | --- | --- | --- | --- | --- | --- |
| KVQVSYKGDTK [HSPA1A_Y107_E110D] | 0.949 | 0.676 | 0.525 | 0.378 | 0.425 | 0.473 | 0.328 | 0.491 | 0.372 | 0.5 | 0.392 | 0.36 | 0.414 | 0.598 | 0.299 | 0.615 |
| KVWGIYDCQQP [CYP3A7_Y75] | 0.78 | 0.761 | 0.472 | 0.772 | 0.687 | 4.49 | 2.48 | 1.56 | 7.28 | 1.14 | 6.28 | 2.3 | 4.76 | 1.61 | 6.6 | 0.998 |
| KWRGQYDVANK [BTK_Y425_I429N] | 1.08 | 0.957 | 1.2 | 0.57 | 0.439 | 0.376 | 0.446 | 0.533 | 0.359 | 0.6 | 0.445 | 0.396 | 0.387 | 0.705 | 0.381 | 0.594 |
| LADKPYTFEYY [FXN_Y118_D122Y] | 1.19 | 0.899 | 1.28 | 0.969 | 1.08 | 2.68 | 0.833 | 1 | 1.77 | 1.25 | 0.707 | 0.719 | 0.52 | 1.08 | 0.782 | 0.802 |
| LADMNYVHCDL [EPHB2_Y742_R745C] | 0.823 | 0.83 | 0.684 | 1.09 | 0.811 | 0.369 | 0.535 | 1.01 | 0.57 | 0.728 | 0.469 | 0.578 | 0.448 | 0.97 | 0.889 | 0.652 |
| LAGRFYALRSM [CKB_Y174_K177R_YF] | 1.38 | 0.874 | 1.2 | 1.84 | 0.598 | 0.571 | 0.843 | 1.29 | 0.737 | 0.59 | 0.821 | 0.944 | 0.509 | 1.92 | 0.583 | 0.642 |
| LDPDSYNVFEN [FOXC1_Y159_M161V] | 0.74 | 0.752 | 1.59 | 1.31 | 0.527 | 0.915 | 0.742 | 2.1 | 0.643 | 2.3 | 0.613 | 0.703 | 1.04 | 2.2 | 0.728 | 1.93 |
| LERDIYNREEF [HLA-DPB1_Y59_Y57D] | 0.841 | 1.07 | 0.678 | 0.906 | 1.03 | 1.18 | 0.672 | 1.19 | 1.23 | 1.3 | 1.17 | 0.718 | 0.49 | 1.62 | 0.706 | 1.39 |
| LERYIYNREEY [HLA-DPB1_Y59_F64Y] | 1.08 | 0.642 | 1.8 | 0.903 | 0.726 | 3.15 | 0.519 | 1.08 | 1.77 | 0.998 | 1.72 | 0.982 | 0.719 | 1.25 | 0.568 | 0.752 |
| LFEDHYLLGTS [ASS1_Y87_R86H_YF] | 1.22 | 0.634 | 0.534 | 0.707 | 0.494 | 1.01 | 0.569 | 1.27 | 0.783 | 1.15 | 0.566 | 0.586 | 0.384 | 1.15 | 0.618 | 0.662 |
| LFQAKYQIRYR [CRLF1_Y272] | 1.46 | 1.67 | 1.22 | 0.789 | 0.566 | 0.531 | 0.325 | 1.07 | 0.477 | 0.949 | 0.763 | 0.517 | 0.465 | 1.33 | 0.79 | 0.779 |
| LFSGDYFRIQG [DDR2_Y740_YF] | 1.03 | 0.652 | 0.674 | 15.7 | 23.1 | 3.77 | 0.739 | 4.61 | 1.36 | 23.4 | 1.57 | 4.1 | 2.08 | 2.04 | 6.99 | 1.67 |
| LFSNAYLNDLA [ALDH1A1_Y119_YF] | 4.23 | 0.627 | 1.29 | 1.25 | 0.986 | 1.15 | 0.688 | 1.14 | 1.12 | 1.11 | 1 | 0.723 | 0.807 | 1.58 | 0.794 | 1.14 |
| LGGSPYPSVPV [FGFR1_Y701_G703S] | 0.915 | 0.608 | 0.476 | 0.646 | 0.784 | 0.453 | 0.675 | 1.04 | 0.564 | 0.645 | 0.817 | 0.735 | 0.614 | 1.25 | 0.85 | 0.747 |
| LGQRIYQYIRS [DYRK1B_Y271_Q275R] | 1.14 | 1.51 | 3.25 | 0.959 | 1.54 | 3.09 | 4.1 | 1.42 | 1.65 | 1.98 | 5.58 | 3.2 | 7.5 | 1.56 | 11.1 | 2.38 |
| LIDGYYRLTED [JAK2_Y373_A377E] | 0.886 | 4.88 | 9 | 1.57 | 1.51 | 0.899 | 0.564 | 1.48 | 0.625 | 7.39 | 0.778 | 0.914 | 0.574 | 1.32 | 0.708 | 1.07 |
| LIHLHYIRRDF [BBS4_Y43_K46R_YF] | 1.28 | 0.817 | 0.854 | 0.732 | 0.521 | 0.448 | 0.564 | 1.1 | 0.503 | 0.972 | 0.581 | 0.707 | 0.419 | 1.02 | 0.669 | 0.333 |
| LISVSYDDWDF [GRIN2A_Y281_YF] | 1.12 | 0.797 | 1.36 | 1.09 | 1.08 | 1.07 | 19.4 | 3.36 | 0.953 | 2.06 | 0.893 | 1 | 1.03 | 2.44 | 1.46 | 1.64 |
| LLTALYFISWG [KCNH2_Y780_R784W] | 1.01 | 0.891 | 0.666 | 1.23 | 0.847 | 2.27 | 0.782 | 1.51 | 1.59 | 1.95 | 2.03 | 0.786 | 3.92 | 1.58 | 1.04 | 1.09 |
| LPEENYQVLCF [ARHGAP1_Y365_R369C] | 0.739 | 0.49 | 0.82 | 5.59 | 8.04 | 5.73 | 7.5 | 3.61 | 1.64 | 5.17 | 4.43 | 5.96 | 3.58 | 3.56 | 9.13 | 3.14 |
| LPKEQYLCTKE [AFG3L2_Y614_Y616C] | 0.883 | 0.533 | 0.584 | 0.653 | 0.482 | 0.427 | 0.562 | 0.858 | 0.466 | 0.868 | 0.409 | 0.428 | 0.409 | 1.01 | 0.463 | 0.723 |

Second part, led by results:

| SH2 binding enrichment (Grb2 SH2) | SH2 binding enrichment (SHP2-C SH2) | SH2 binding enrichment (c-Src SH2) | Sequence | phosphorylation enrichment (FGFR3) | phosphorylation enrichment (FGFR1) | phosphorylation enrichment (c-Src) | phosphorylation enrichment (Fer (mouse)) | phosphorylation enrichment (AncSZ) | phosphorylation enrichment (Fyn) | phosphorylation enrichment (Jak2) | phosphorylation enrichment (Hck) | phosphorylation enrichment (EPHB2) | phosphorylation enrichment (MERTK) | phosphorylation enrichment (Fes) | phosphorylation enrichment (EPHB1) | phosphorylation enrichment (c-Abl (mouse)) |
| --- | --- | --- | --- | --- | --- | --- | --- | --- | --- | --- | --- | --- | --- | --- | --- | --- |
| 1.11 | 1.18 | 1.19 | KWHREYNSKFV [RICTOR_Y835_YF] | 0.49 | 0.371 | 0.334 | 0.422 | 0.556 | 0.364 | 0.581 | 0.371 | 0.391 | 0.37 | 0.623 | 0.35 | 0.555 |
| 1.02 | 0.73 | 0.775 | KYLENYYDLKK [MMP3_Y41] | 4.8 | 7.68 | 1.15 | 0.513 | 0.922 | 2.24 | 0.782 | 2.16 | 2.77 | 0.709 | 0.99 | 7.15 | 0.736 |
| 0.539 | 0.562 | 0.42 | LANNEYYFRVC | 3.11 | 3.72 | 0.516 | 0.62 | 1.6 | 0.743 | 1.51 | 0.794 | 0.993 | 0.823 | 1.27 | 0.682 | 0.573 |
| 0.868 | 0.551 | 0.498 | LDVDVYGPSVP [NUBPL_Y109] | 0.72 | 0.483 | 1.33 | 1.2 | 1.06 | 1.47 | 0.829 | 1.77 | 0.536 | 0.498 | 1.28 | 0.622 | 1.4 |
| 0.961 | 0.884 | 0.801 | LEITWYPFDVE [RIPOR2_Y316] | 1.55 | 0.679 | 0.704 | 0.827 | 1.49 | 0.751 | 2.3 | 0.691 | 1.05 | 0.461 | 2.12 | 1.21 | 1.25 |
| 0.691 | 0.682 | 0.559 | LHAAAYRNALA [UQCRC2_Y182] | 0.402 | 0.415 | 0.398 | 0.33 | 0.686 | 0.55 | 0.594 | 0.484 | 0.491 | 0.407 | 0.871 | 0.362 | 0.303 |
| 1.54 | 1.56 | 1.44 | LITTLYSGFLG [KCNQ1_Y267_I268S] | 0.755 | 0.339 | 6.52 | 0.824 | 1.38 | 5.49 | 0.992 | 3.96 | 0.611 | 3.39 | 1.08 | 0.965 | 1.22 |
| 1.26 | 0.866 | 2.2 | LLQKTYNYNVL [SLC4A1_Y553_P548L] | 1.06 | 1.23 | 0.851 | 0.496 | 1.26 | 1.07 | 0.834 | 1.01 | 1.7 | 0.694 | 1.52 | 0.745 | 0.716 |
| 1.03 | 1 | 1.11 | LLREWYVQDPF [SIX3_Y225_L226V_YF] | 0.998 | 0.766 | 0.466 | 0.576 | 0.961 | 0.438 | 0.892 | 0.522 | 0.621 | 0.443 | 0.977 | 0.673 | 0.528 |
| 0.623 | 5.07 | 1.71 | LNAGAYSKVVQ [PPT1_Y172] | 0.686 | 0.41 | 0.84 | 1.02 | 1.12 | 0.529 | 1.28 | 0.357 | 0.557 | 0.627 | 0.974 | 0.703 | 0.994 |
| 0.974 | 1.04 | 12.2 | LNEVGYDDIGG [VCP_Y203] | 1.72 | 1.07 | 0.812 | 0.861 | 1.42 | 1.15 | 1.9 | 1.36 | 1.04 | 0.827 | 2.47 | 1.4 | 1.09 |
| 0.76 | 0.784 | 1.58 | LQFKNYQQLFD [MAN2A1_Y442] | 0.679 | 0.453 | 0.377 | 0.391 | 0.944 | 0.379 | 0.882 | 0.527 | 0.532 | 0.358 | 0.985 | 0.641 | 0.636 |
